Measurements published in patent US20140056895 (published 2014).
Values joined by “and” are separate entries in the source; they are usually repeats but may differ in a detail not shown here. Identical values can stand only once. Like-named read-outs stand apart in the source and are kept apart here.

Assays:
IL4 [1] = target: T1, IL4 (human, UniProt P05112); experiment: SPR
T1 chain: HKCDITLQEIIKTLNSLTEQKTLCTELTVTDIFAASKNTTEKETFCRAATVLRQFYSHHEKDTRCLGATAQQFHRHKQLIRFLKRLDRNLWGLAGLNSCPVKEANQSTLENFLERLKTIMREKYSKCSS

IL13 [2] = target: T2, IL13 (human, UniProt P35225); experiment: SPR
EGFR = EGFR (human, UniProt P00533); experiment: SPR
IL4 [3] = target: T1, IL4; experiment: SPR
IL4 [4] = target: T1, IL4; experiment: SPR
IL13 [5] = target: T2, IL13; experiment: SPR; remark: listed apart in the source
IL4 [6] = target: T1, IL4; experiment: SPR
IL13 [7] = target: T2, IL13
IL13 [8] = target: T2, IL13; experiment: SPR; remark: listed apart in the source
IL4 [9] = target: T1, IL4; experiment: SPR

T2 sequence (P35225 35-146): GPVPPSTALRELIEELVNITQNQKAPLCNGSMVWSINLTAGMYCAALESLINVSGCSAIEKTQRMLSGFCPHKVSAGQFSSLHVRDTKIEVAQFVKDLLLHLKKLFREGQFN

B1: CODV-Ig LC4:HC4, IL4 arm (antibody, V domains shown)
VH: QVQLQQSGPELVKPGASVKISCKASGYSFTSYWIHWIKQRPGQGLEWIGMIDPSDGETRLNQRFQGRATLTVDESTSTAYMQLRSPTSEDSAVYYCTRLKEYGNYDSFYFDVWGAGTLVTVSS
VL: DIQMTQSPASLSVSVGDTITLTCHASQNIDVWLSWFQQKPGNIPKLLIYKASNLHTGVPSRFSGSGSGTGFTLTISSLQPEDIATYYCQQAHSYPFTFGGGTKLEIKR
With B1 the Kd (IL4 [1]) was 9.14 pM.

B2: CODV-Ig Fc cysteine variants (602, 603), IL13 arm (antibody, V domains shown)
VH: EVQLKESGPGLVAPGGSLSITCTVSGFSLTDSSINWVRQPPGKGLEWLGMIWGDGRIDYADALKSRLSISKDSSKSQVFLEMTSLRTDDTATYYCARDGYFPYAMDFWGQGTSVTVSS
VL: DIVLTQSPASLAVSLGQRATISCRASESVDSYGQSYMHWYQQKAGQPPKLLIYLASNLESGVPARFSGSGSRTDFTLTIDPVQAEDAATYYCQQNAEDSRTFGGGTKLEIK
In the case of B2, the Kd (IL13 [2]) is reported as 64 pM and 100 pM.

B3: CODV-Fab 413, EGFR arm (antibody)
chain 1: not shown
chain 2: EIVLTQSPGTLSVSPGERATLSCRASQSIGSSLHWYQQKPGQAPRLLIKYASQSLSGIPDRFSGSGSGTDFTLTISRLEPEDFAVYYCHQSSRLPHTFGQGTKVEIKGGGGGGGEIVMTQSPATLSLSPGERATLSCRASQSVSSYLAWYQQKPGQAPRLLIYDASNRATGIPARFSGSGSGTDFTLTISSLEPEDFAVYYCHQYGSTPLTFGGGTKAEIKGGGGGRTVAAPSVFIFPPSDEQLKSGTASVVCLLNNFYPREAKVQWKVDNALQSGNSQESVTEQDSKDSTYSLSSTLTLSKADYEKHKVYACEVTHQGLSSPVTKSFNRGEC
B3 gave a Kd (EGFR) of 42000 pM.

B4: CODV 706, IL4 arm (antibody, V domains shown)
VH: QVQLQQSGPELVKPGASVKISCKASGYSFTSYWIHWIKQRPGQCLEWIGMIDPSDGETRLNQRFQGRATLTVDESTSTAYMQLRSPTSEDSAVYYCTRLKEYGNYDSFYFDVWGAGTLVTVSS
VL: DIQMTQSPASLSVSVGDTITLTCHASQNIDVWLSWFQQKPGNIPKLLIYKASNLHTGVPSRFSGSGSGTGFTLTISSLQPEDIATYYCQQAHSYPFTFGCGTKLEIKR
B4 showed a Kd (IL4 [3]) of 8 pM.

B5: CODV-Ig 411 HC13/LC13, EGFR arm (antibody)
chain 1: not shown
chain 2: EIVLTQSPGTLSVSPGERATLSCRASQSIGSSLHWYQQKPGQAPRLLIKYASQSLSGIPDRFSGSGSGTDFTLTISRLEPEDFAVYYCHQSSRLPHTFGQGTKVEIKGGGGGGGEIVMTQSPATLSLSPGERATLSCRASQSVSSYLAWYQQKPGQAPRLLIYDASNRATGIPARFSGSGSGTDFTLTISSLEPEDFAVYYCHQYGSTPLTFGGGTKAEIKGGGGGRTVAAPSVFIFPPSDEQLKSGTASVVCLLNNFYPREAKVQWKVDNALQSGNSQESVTEQDSKDSTYSLSSTLTLSKADYEKHKVYACEVTHQGLSSPVTKSFNRGEC
B5 showed a Kd (EGFR) of 124000 pM.

B6: parental anti-IL4 mAb (8D4 humanized) (antibody, V domains shown)
VH: QVQLQQSGPELVKPGASVKISCKASGYSFTSYWIHWIKQRPGQGLEWIGMIDPSDGETRLNQRFQGRATLTVDESTSTAYMQLRSPTSEDSAVYYCTRLKEYGNYDSFYFDVWGAGTLVTVSS
VL: DIQMTQSPASLSVSVGDTITLTCHASQNIDVWLSWFQQKPGNIPKLLIYKASNLHTGVPSRFSGSGSGTGFTLTISSLQPEDIATYYCQQAHSYPFTFGGGTKLEIKR
B6 was tested, and the Kd (IL4 [1]) was 7.83 pM.

B7: CODV-Ig heavy-chain template (batches 201-270, 501-508, 704, 801), IL4 arm (antibody, V domains shown)
VH: QVQLQQSGPELVKPGASVKISCKASGYSFTSYWIHWIKQRPGQGLEWIGMIDPSDGETRLNQRFQGRATLTVDESTSTAYMQLRSPTSEDSAVYYCTRLKEYGNYDSFYFDVWGAGTLVTVSS
VL: DIQMTQSPASLSVSVGDTITLTCHASQNIDVWLSWFQQKPGNIPKLLIYKASNLHTGVPSRFSGSGSGTGFTLTISSLQPEDIATYYCQQAHSYPFTFGGGTKLEIKR
B7 gave a Kd (IL4 [3]) of 3 pM and a Kd (IL4 [4]) of 3 pM.

B8: parental anti-IL13 mAb (B-B13 humanized) (antibody, V domains shown)
VH: EVQLKESGPGLVAPGGSLSITCTVSGFSLTDSSINWVRQPPGKGLEWLGMIWGDGRIDYADALKSRLSISKDSSKSQVFLEMTSLRTDDTATYYCARDGYFPYAMDFWGQGTSVTVSS
VL: DIVLTQSPASLAVSLGQRATISCRASESVDSYGQSYMHWYQQKAGQPPKLLIYLASNLESGVPARFSGSGSRTDFTLTIDPVQAEDAATYYCQQNAEDSRTFGGGTKLEIK
B8 gave a Kd (IL13 [5]) of 81.8 pM.

B9: CODV-Ig Fc cysteine variants (602, 603), IL4 arm (antibody, V domains shown)
VH: QVQLQQSGPELVKPGASVKISCKASGYSFTSYWIHWIKQRPGQGLEWIGMIDPSDGETRLNQRFQGRATLTVDESTSTAYMQLRSPTSEDSAVYYCTRLKEYGNYDSFYFDVWGAGTLVTVSS
VL: DIQMTQSPASLSVSVGDTITLTCHASQNIDVWLSWFQQKPGNIPKLLIYKASNLHTGVPSRFSGSGSGTGFTLTISSLQPEDIATYYCQQAHSYPFTFGGGTKLEIKR
B9 was tested, and the Kd (IL4 [6]) was 4 pM and 10 pM.

B10: CODV-Ig LC4:HC6, IL13 arm (antibody, V domains shown)
VH: EVQLKESGPGLVAPGGSLSITCTVSGFSLTDSSINWVRQPPGKGLEWLGMIWGDGRIDYADALKSRLSISKDSSKSQVFLEMTSLRTDDTATYYCARDGYFPYAMDFWGQGTSVTVSS
VL: DIVLTQSPASLAVSLGQRATISCRASESVDSYGQSYMHWYQQKAGQPPKLLIYLASNLESGVPARFSGSGSRTDFTLTIDPVQAEDAATYYCQQNAEDSRTFGGGTKLEIK
B10 was tested, and the Kd (IL13 [5]) was 118 pM.

B11: Cross-over IL4(G4S)IL13CH1-Fc / IL13(G4S)IL4CL (antibody)
chain 1: not shown
chain 2: DIVLTQSPASLAVSLGQRATISCRASESVDSYGQSYMHWYQQKAGQPPKLLIYLASNLESGVPARFSGSGSRTDFTLTIDPVQAEDAATYYCQQNAEDSRTFGGGTKLEIKGGGGSDIQMTQSPASLSVSVGDTITLTCHASQNIDVWLSWFQQKPGNIPKLLIYKASNLHTGVPSRFSGSGSGTGFTLTISSLQPEDIATYYCQQAHSYPFTFGGGTKLEIKRTVAAPSVFIFPPSDEQLKSGTASVVCLLNNFYPREAKVQWKVDNALQSGNSQESVTEQDSKDSTYSLSSTLTLSKADYEKHKVYACEVTHQGLSSPVTKSFNRGEC
B11: no binding (IL13 [7]).

B12: CODV-Fab 421, IL13 arm (antibody, V domains shown)
VH: EVQLKESGPGLVAPGGSLSITCTVSGFSLTDSSINWVRQPPGKGLEWLGMIWGDGRIDYADALKSRLSISKDSSKSQVFLEMTSLRTDDTATYYCARDGYFPYAMDFWGQGTSVTVSS
VL: DIVLTQSPASLAVSLGQRATISCRASESVDSYGQSYMHWYQQKAGQPPKLLIYLASNLESGVPARFSGSGSRTDFTLTIDPVQAEDAATYYCQQNAEDSRTFGGGTKLEIK
B12 gave a Kd (IL13 [8]) of 48 pM.

B13: CODV-Fab 421, IL4 arm (antibody, V domains shown)
VH: QVQLQQSGPELVKPGASVKISCKASGYSFTSYWIHWIKQRPGQGLEWIGMIDPSDGETRLNQRFQGRATLTVDESTSTAYMQLRSPTSEDSAVYYCTRLKEYGNYDSFYFDVWGAGTLVTVSS
VL: DIQMTQSPASLSVSVGDTITLTCHASQNIDVWLSWFQQKPGNIPKLLIYKASNLHTGVPSRFSGSGSGTGFTLTISSLQPEDIATYYCQQAHSYPFTFGGGTKLEIKR
B13 showed a Kd (IL4 [9]) of 12 pM.

B14: Cross-over IL4(G4S2)IL13CH1-Fc / IL13(G4S)IL4CL (antibody)
chain 1: not shown
chain 2: DIVLTQSPASLAVSLGQRATISCRASESVDSYGQSYMHWYQQKAGQPPKLLIYLASNLESGVPARFSGSGSRTDFTLTIDPVQAEDAATYYCQQNAEDSRTFGGGTKLEIKGGGGSDIQMTQSPASLSVSVGDTITLTCHASQNIDVWLSWFQQKPGNIPKLLIYKASNLHTGVPSRFSGSGSGTGFTLTISSLQPEDIATYYCQQAHSYPFTFGGGTKLEIKRTVAAPSVFIFPPSDEQLKSGTASVVCLLNNFYPREAKVQWKVDNALQSGNSQESVTEQDSKDSTYSLSSTLTLSKADYEKHKVYACEVTHQGLSSPVTKSFNRGEC
B14: no binding (IL13 [7]).

B15: CODV-Ig LC4:HC6, IL4 arm (antibody, V domains shown)
VH: QVQLQQSGPELVKPGASVKISCKASGYSFTSYWIHWIKQRPGQGLEWIGMIDPSDGETRLNQRFQGRATLTVDESTSTAYMQLRSPTSEDSAVYYCTRLKEYGNYDSFYFDVWGAGTLVTVSS
VL: DIQMTQSPASLSVSVGDTITLTCHASQNIDVWLSWFQQKPGNIPKLLIYKASNLHTGVPSRFSGSGSGTGFTLTISSLQPEDIATYYCQQAHSYPFTFGGGTKLEIKR
B15 was tested, and the Kd (IL4 [1]) was 11.1 pM.

B16: Cross-over IL4(G4S)IL13CH1-Fc / IL13(G4S2)IL4CL (antibody)
chain 1: not shown
chain 2: DIVLTQSPASLAVSLGQRATISCRASESVDSYGQSYMHWYQQKAGQPPKLLIYLASNLESGVPARFSGSGSRTDFTLTIDPVQAEDAATYYCQQNAEDSRTFGGGTKLEIKGGGGSGGGGSDIQMTQSPASLSVSVGDTITLTCHASQNIDVWLSWFQQKPGNIPKLLIYKASNLHTGVPSRFSGSGSGTGFTLTISSLQPEDIATYYCQQAHSYPFTFGGGTKLEIKRTVAAPSVFIFPPSDEQLKSGTASVVCLLNNFYPREAKVQWKVDNALQSGNSQESVTEQDSKDSTYSLSSTLTLSKADYEKHKVYACEVTHQGLSSPVTKSFNRGEC
B16: no binding (IL13 [7]).

B17: CODV-Ig LC4:HC4, IL13 arm (antibody, V domains shown)
VH: EVQLKESGPGLVAPGGSLSITCTVSGFSLTDSSINWVRQPPGKGLEWLGMIWGDGRIDYADALKSRLSISKDSSKSQVFLEMTSLRTDDTATYYCARDGYFPYAMDFWGQGTSVTVSS
VL: DIVLTQSPASLAVSLGQRATISCRASESVDSYGQSYMHWYQQKAGQPPKLLIYLASNLESGVPARFSGSGSRTDFTLTIDPVQAEDAATYYCQQNAEDSRTFGGGTKLEIK
B17 showed a Kd (IL13 [5]) of 93.4 pM.
